The source of these data is publication PMC2885016.

For the experiment, the target named is human P-TEFb (Cdk9 (1-345)•Cyclin T1 (1-266)) (human) (UniProt P50750). As to the kind of experiment: SDS-PAGE of dissolved crystals.
Sequence of UniProt P50750 (P50750 1-345, chain 1 of 2): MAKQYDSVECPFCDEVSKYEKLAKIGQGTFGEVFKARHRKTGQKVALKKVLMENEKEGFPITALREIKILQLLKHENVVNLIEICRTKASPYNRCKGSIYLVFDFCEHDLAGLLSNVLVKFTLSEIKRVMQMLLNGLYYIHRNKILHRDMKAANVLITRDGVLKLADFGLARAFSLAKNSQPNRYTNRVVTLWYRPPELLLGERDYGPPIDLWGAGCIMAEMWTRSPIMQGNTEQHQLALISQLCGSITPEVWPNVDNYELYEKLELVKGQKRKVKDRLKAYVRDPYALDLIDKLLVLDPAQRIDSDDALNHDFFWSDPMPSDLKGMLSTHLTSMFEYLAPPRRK
Sequence of UniProt P50750 (O60563 1-266, chain 2 of 2, further chain): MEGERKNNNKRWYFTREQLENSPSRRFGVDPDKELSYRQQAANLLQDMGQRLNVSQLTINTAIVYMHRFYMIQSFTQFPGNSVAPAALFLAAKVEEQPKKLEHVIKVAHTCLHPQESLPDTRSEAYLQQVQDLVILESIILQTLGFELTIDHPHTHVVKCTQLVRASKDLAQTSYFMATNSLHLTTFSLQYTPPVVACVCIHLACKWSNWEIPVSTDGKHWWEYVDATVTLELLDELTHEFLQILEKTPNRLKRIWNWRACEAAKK

In general, stoichiometry N refers to a count of units in the complex or per binding partner. Substance “HIV-1 Tat (1-86) (from UniProt P04608 1-86) (natural protein)” came in with a stoichiometry N of 1.
